Measurements reported in the RNAGym collection of RNA variant scans (doi:10.7554/elife.90254).

B1: LINE1-full (parent)
chain: UACGUAGGUGGUUUUCCCCUGAUAGUGCUAAGGGGGCCUGGAAGUUUGGACUGGGCAGAGCUCAACACAGCGUGGCAAAGUGGCUGUGGCUAGACUGCCUCUCUGGAUUCCUCGUCACUCAGCAGGGCAUCUCUGAGAGAAAUGCC

Variants of: B1
Test: self-cleavage, relative activity (ratio to wild type); higher = more cleavage; in vitro, sequencing; the parent is a self-cleaving ribozyme

Going from A42U A107G to A42U A121C, the self-cleavage rises from 1.25 to 2.42.

First: A42U A124U
Second: A42U A129G
The self-cleavage of the first is lower: 1.09 for the first, 1.34 for the second.

Going from A42U A129U to A42U A138G, the self-cleavage rises from 0.86 to 1.28.

First: A42U A141U
Second: A42U A142G
The self-cleavage of the first is lower: 0.81 for the first, 0.88 for the second.

First: A42U C66A
Second: A42U C103A
The self-cleavage of the first is lower: 0.03 for the first, 0.91 for the second.

First: A42U C113A
Second: A42U C128G
The self-cleavage of the first is higher: 0.98 for the first, 0.87 for the second.

Going from A42U G55U to A42U G72U, the self-cleavage rises from 0.1 to 0.62.

Compared with A42U G89U, A42U U45C is higher in self-cleavage: 0.04 for the first, 1.4 for the second.

First: A42U U52A
Second: A42U U62C
The self-cleavage of the first is higher: 1.2 for the first, 0.04 for the second.

Going from A42U U73C to A42U U73G, the self-cleavage falls from 1.56 to 0.95.

First: A42U U81C
Second: A42U U100A
The self-cleavage of the first is higher: 1.28 for the first, 0.62 for the second.

Going from A42U U100C to A42U U102C, the self-cleavage falls from 1.32 to 0.89.

First: A42U U102G
Second: A42U U104C
The self-cleavage of the first is lower: 0.09 for the first, 1.76 for the second.

Compared with A42U U109A, A42U U112A is lower in self-cleavage: 1.39 for the first, 1.15 for the second.

Compared with A42U U112C, A42U U119C is higher in self-cleavage: 1.08 for the first, 1.73 for the second.

First: A42U U132A
Second: A42U U143C
The self-cleavage of the first is higher: 1.02 for the first, 0.94 for the second.

Going from A43C A65G to A43C A77U, the self-cleavage rises from 0 to 1.39.

First: A43C A78U
Second: A43C A94G
The self-cleavage of the first is higher: 2.11 for the first, 0.66 for the second.

First: A43C A136U
Second: A43C A138G
The self-cleavage of the first is higher: 1.64 for the first, 1.02 for the second.

Going from A43C C66U to A43C C99U, the self-cleavage rises from 0.04 to 0.98.

Going from A43C C113A to A43C G97A, the self-cleavage falls from 1.1 to 0.09.

First: A43C U81A
Second: A43C U100A
The self-cleavage of the first is higher: 1.77 for the first, 1.41 for the second.

Compared with A43G A50U, A43G A57C is lower in self-cleavage: 0.64 for the first, 0.09 for the second.

Compared with A43G A57G, A43G A57U is lower in self-cleavage: 0.78 for the first, 0.21 for the second.

First: A43G A59U
Second: A43G A64G
The self-cleavage of the first is higher: 0.82 for the first, 0.32 for the second.

First: A43G A64U
Second: A43G A67U
The self-cleavage of the first is higher: 0.4 for the first, 0.06 for the second.

First: A43G A69C
Second: A43G A77G
The self-cleavage of the first is lower: 0.13 for the first, 2.07 for the second.

First: A43G A78G
Second: A43G A78U
The self-cleavage of the first is lower: 1.2 for the first, 1.86 for the second.

Compared with A43G A79G, A43G A79U is higher in self-cleavage: 0.97 for the first, 1.8 for the second.

First: A43G A92U
Second: A43G A94G
The self-cleavage of the first is higher: 0.92 for the first, 0.36 for the second.

First: A43G A107C
Second: A43G A107G
The self-cleavage of the first is lower: 1.17 for the first, 1.5 for the second.

Going from A43G A107U to A43G A117C, the self-cleavage rises from 0.7 to 1.85.

Compared with A43G A124C, A43G A124G is lower in self-cleavage: 1.96 for the first, 1.05 for the second.

First: A43G A124U
Second: A43G A136C
The self-cleavage of the first is higher: 1.38 for the first, 1.18 for the second.

A43G A136G and A43G A136U are the same in self-cleavage: 1.5 for the first, 1.5 for the second.

Compared with A43G A138G, A43G A140U is lower in self-cleavage: 1.34 for the first, 1.19 for the second.

Compared with A43G A142C, A43G C76U is higher in self-cleavage: 1 for the first, 1.66 for the second.

Going from A43G C84U to A43G C90A, the self-cleavage falls from 0.16 to 0.07.

Compared with A43G C99U, A43G C103U is higher in self-cleavage: 1.1 for the first, 1.25 for the second.

First: A43G C111U
Second: A43G C113U
The self-cleavage of the first is lower: 0.93 for the first, 1.12 for the second.

Going from A43G C116U to A43G C118U, the self-cleavage falls from 1.22 to 1.19.

Compared with A43G C120U, A43G C128U is lower in self-cleavage: 1.52 for the first, 0.79 for the second.

First: A43G C146U
Second: A43G G48U
The self-cleavage of the first is higher: 1.69 for the first, 1.28 for the second.

Going from A43G G70A to A43G G70U, the self-cleavage rises from 0.11 to 0.15.

Compared with A43G G74A, A43G G75A is lower in self-cleavage: 1.17 for the first, 1.06 for the second.

Compared with A43G G80A, A43G G82A is lower in self-cleavage: 1.48 for the first, 1.31 for the second.

Going from A43G G86A to A43G G86U, the self-cleavage falls from 0.06 to 0.03.

Compared with A43G G93A, A43G G97A is lower in self-cleavage: 0.1 for the first, 0.04 for the second.

Compared with A43G G105U, A43G G106A is lower in self-cleavage: 1.65 for the first, 1.36 for the second.

Compared with A43G G122A, A43G G126A is higher in self-cleavage: 0.19 for the first, 1.16 for the second.

Going from A43G G127A to A43G G127C, the self-cleavage falls from 0.98 to 0.77.

Compared with A43G G144A, A43G U45C is lower in self-cleavage: 1.39 for the first, 1.1 for the second.

First: A43G U46C
Second: A43G U47C
The self-cleavage of the first is lower: 0.53 for the first, 1.31 for the second.

First: A43G U52A
Second: A43G U52C
The self-cleavage of the first is higher: 1.43 for the first, 1.13 for the second.

Compared with A43G U62C, A43G U73A is higher in self-cleavage: 0.1 for the first, 1.53 for the second.

First: A43G U73C
Second: A43G U81C
The self-cleavage of the first is lower: 1.3 for the first, 1.32 for the second.

Going from A43G U85A to A43G U85C, the self-cleavage rises from 0.1 to 0.2.

First: A43G U85G
Second: A43G U87C
The self-cleavage of the first is lower: 0.15 for the first, 0.32 for the second.

Compared with A43G U91C, A43G U96A is lower in self-cleavage: 0.37 for the first, 0.07 for the second.

First: A43G U100C
Second: A43G U104C
The self-cleavage of the first is lower: 1.65 for the first, 1.68 for the second.

First: A43G U104G
Second: A43G U108C
The self-cleavage of the first is higher: 1.78 for the first, 1.56 for the second.

Going from A43G U109A to A43G U109C, the self-cleavage rises from 1.46 to 1.92.

Compared with A43G U112A, A43G U112C is lower in self-cleavage: 1.4 for the first, 1.2 for the second.

Going from A43G U119C to A43G U134A, the self-cleavage falls from 1.51 to 0.89.

Going from A43G U143C to A43G U143G, the self-cleavage rises from 1.36 to 1.42.

Compared with A43U A57G, A43U A64U is lower in self-cleavage: 0.89 for the first, 0.43 for the second.

First: A43U A65G
Second: A43U A67G
The self-cleavage of the first is lower: 0.02 for the first, 0.56 for the second.

Compared with A43U A69G, A43U A77U is higher in self-cleavage: 0.59 for the first, 1.02 for the second.

Compared with A43U A94U, A43U A107U is higher in self-cleavage: 0.24 for the first, 1.81 for the second.

First: A43U A121U
Second: A43U A124G
The self-cleavage of the first is higher: 0.79 for the first, 0.71 for the second.

Compared with A43U A129U, A43U A138G is lower in self-cleavage: 1.22 for the first, 0.83 for the second.

First: A43U A138U
Second: A43U A140C
The self-cleavage of the first is lower: 1.14 for the first, 1.58 for the second.

First: A43U A140G
Second: A43U A140U
The self-cleavage of the first is lower: 1.02 for the first, 1.49 for the second.

First: A43U A141C
Second: A43U A142G
The self-cleavage of the first is higher: 2.43 for the first, 1.24 for the second.

Going from A43U C90A to A43U C103U, the self-cleavage rises from 0.07 to 1.09.

First: A43U C110U
Second: A43U C116U
The self-cleavage of the first is lower: 0.83 for the first, 1.12 for the second.

Compared with A43U C131A, A43U G49A is lower in self-cleavage: 1.64 for the first, 1.34 for the second.

Going from A43U G72A to A43U G135U, the self-cleavage rises from 1.38 to 1.43.

First: A43U U45C
Second: A43U U46A
The self-cleavage of the first is lower: 0.87 for the first, 1.24 for the second.

Going from A43U U62C to A43U U73A, the self-cleavage rises from 0.06 to 0.93.

Going from A43U U73C to A43U U81C, the self-cleavage falls from 1.79 to 1.26.

Going from A43U U87A to A43U U91C, the self-cleavage rises from 0.03 to 0.68.

First: A43U U96C
Second: A43U U104A
The self-cleavage of the first is lower: 0.1 for the first, 0.98 for the second.

A43U U108A showed a self-cleavage of 1.46.
